Patent US20150087577A1 (POLYPHOR, published 2015)
Bridges are numbered along the chain shown (N, C = ends). [ ]: non-standard residue; d: D form. 2Nal = N[C@@H](Cc1ccc2ccccc2c1)C(=O)O; Cit = NC(=O)NCCC[C@H](N)C(=O)O

These binders were tested against human CXCR4 (human, UniProt P61073 1-352) (assay: cell-based or functional assay).
Chain of human CXCR4 (P61073 whole entry): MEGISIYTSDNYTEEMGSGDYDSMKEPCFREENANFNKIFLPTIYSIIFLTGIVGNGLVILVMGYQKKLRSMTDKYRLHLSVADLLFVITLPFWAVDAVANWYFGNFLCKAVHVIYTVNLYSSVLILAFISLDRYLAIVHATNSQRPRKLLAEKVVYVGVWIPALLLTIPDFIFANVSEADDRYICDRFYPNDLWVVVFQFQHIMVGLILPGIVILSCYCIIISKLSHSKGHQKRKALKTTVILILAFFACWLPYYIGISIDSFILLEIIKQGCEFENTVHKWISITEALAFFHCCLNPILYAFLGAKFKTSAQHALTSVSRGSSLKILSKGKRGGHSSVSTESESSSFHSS

| Binder | IC50 (nM) Ca2+ assay (method 2) | IC50 (nM) Ca2+ assay (method 1) |
| --- | --- | --- |
| cyclo(YRKCRG[dP]RR[2Nal]CYQK[dP]P) (disulfide 4-11; SMILES N=C(N)NCCC[C@@H]1NC(=O)[C@@H]2CSSC[C@H](NC(=O)[C@H](Cc3ccc4ccccc4c3)NC(=O)[C@H](CCCNC(=N)N)NC(=O)[C@H](CCCNC(=N)N)NC(=O)[C@H]3CCCN3C(=O)CNC1=O)C(=O)N[C@@H](Cc1ccc(O)cc1)C(=O)N[C@@H](CCC(N)=O)C(=O)N[C@@H](CCCCN)C(=O)N1CCC[C@@H]1C(=O)N1CCC[C@H]1C(=O)N[C@@H](Cc1ccc(O)cc1)C(=O)N[C@@H](CCCNC(=N)N)C(=O)N[C@@H](CCCCN)C(=O)N2) [Example 94] | 2.5 nM | – |
| cyclo(MR[Cit]CRG[dP]RR[2Nal]CYQK[dP]P) (disulfide 4-11; SMILES CSCC[C@@H]1NC(=O)[C@@H]2CCCN2C(=O)[C@H]2CCCN2C(=O)[C@H](CCCCN)NC(=O)[C@H](CCC(N)=O)NC(=O)[C@H](Cc2ccc(O)cc2)NC(=O)[C@@H]2CSSC[C@H](NC(=O)[C@H](CCCNC(N)=O)NC(=O)[C@H](CCCNC(=N)N)NC1=O)C(=O)N[C@@H](CCCNC(=N)N)C(=O)NCC(=O)N1CCC[C@@H]1C(=O)N[C@@H](CCCNC(=N)N)C(=O)N[C@@H](CCCNC(=N)N)C(=O)N[C@@H](Cc1ccc3ccccc3c1)C(=O)N2) [Example 91] | 2.1 nM | – |
| cyclo(YRDCRG[dP]RR[2Nal]CYQK[dP]P) (disulfide 4-11; SMILES N=C(N)NCCC[C@@H]1NC(=O)[C@@H]2CSSC[C@H](NC(=O)[C@H](Cc3ccc4ccccc4c3)NC(=O)[C@H](CCCNC(=N)N)NC(=O)[C@H](CCCNC(=N)N)NC(=O)[C@H]3CCCN3C(=O)CNC1=O)C(=O)N[C@@H](Cc1ccc(O)cc1)C(=O)N[C@@H](CCC(N)=O)C(=O)N[C@@H](CCCCN)C(=O)N1CCC[C@@H]1C(=O)N1CCC[C@H]1C(=O)N[C@@H](Cc1ccc(O)cc1)C(=O)N[C@@H](CCCNC(=N)N)C(=O)N[C@@H](CC(=O)O)C(=O)N2) [Example 93] | 4.3 nM | – |
| cyclo(YR[Cit]VRRR[2Nal]VY[Cit]K[dP]P) (SMILES CC(C)[C@@H]1NC(=O)[C@H](CCCNC(N)=O)NC(=O)[C@H](CCCNC(=N)N)NC(=O)[C@H](Cc2ccc(O)cc2)NC(=O)[C@@H]2CCCN2C(=O)[C@H]2CCCN2C(=O)[C@H](CCCCN)NC(=O)[C@H](CCCNC(N)=O)NC(=O)[C@H](Cc2ccc(O)cc2)NC(=O)[C@H](C(C)C)NC(=O)[C@H](Cc2ccc3ccccc3c2)NC(=O)[C@H](CCCNC(=N)N)NC(=O)[C@H](CCCNC(=N)N)NC(=O)[C@H](CCCNC(=N)N)NC1=O) [Example 6] | – | 1930 nM |
| cyclo(YRNCRG[dP]RR[2Nal]CYQK[dP]P) (disulfide 4-11; SMILES N=C(N)NCCC[C@@H]1NC(=O)[C@@H]2CSSC[C@H](NC(=O)[C@H](Cc3ccc4ccccc4c3)NC(=O)[C@H](CCCNC(=N)N)NC(=O)[C@H](CCCNC(=N)N)NC(=O)[C@H]3CCCN3C(=O)CNC1=O)C(=O)N[C@@H](Cc1ccc(O)cc1)C(=O)N[C@@H](CCC(N)=O)C(=O)N[C@@H](CCCCN)C(=O)N1CCC[C@@H]1C(=O)N1CCC[C@H]1C(=O)N[C@@H](Cc1ccc(O)cc1)C(=O)N[C@@H](CCCNC(=N)N)C(=O)N[C@@H](CC(N)=O)C(=O)N2) [Example 92] | 1.1 nM | – |
| cyclo(VR[Cit]CRG[dP]RR[2Nal]CYQK[dP]P) (disulfide 4-11; SMILES CC(C)[C@@H]1NC(=O)[C@@H]2CCCN2C(=O)[C@H]2CCCN2C(=O)[C@H](CCCCN)NC(=O)[C@H](CCC(N)=O)NC(=O)[C@H](Cc2ccc(O)cc2)NC(=O)[C@@H]2CSSC[C@H](NC(=O)[C@H](CCCNC(N)=O)NC(=O)[C@H](CCCNC(=N)N)NC1=O)C(=O)N[C@@H](CCCNC(=N)N)C(=O)NCC(=O)N1CCC[C@@H]1C(=O)N[C@@H](CCCNC(=N)N)C(=O)N[C@@H](CCCNC(=N)N)C(=O)N[C@@H](Cc1ccc3ccccc3c1)C(=O)N2) [Example 90] | 19.5 nM | – |
| cyclo(SR[Cit]CRG[dP]RR[2Nal]CYQK[dP]P) (disulfide 4-11; SMILES N=C(N)NCCC[C@@H]1NC(=O)[C@@H]2CSSC[C@H](NC(=O)[C@H](Cc3ccc4ccccc4c3)NC(=O)[C@H](CCCNC(=N)N)NC(=O)[C@H](CCCNC(=N)N)NC(=O)[C@H]3CCCN3C(=O)CNC1=O)C(=O)N[C@@H](Cc1ccc(O)cc1)C(=O)N[C@@H](CCC(N)=O)C(=O)N[C@@H](CCCCN)C(=O)N1CCC[C@@H]1C(=O)N1CCC[C@H]1C(=O)N[C@@H](CO)C(=O)N[C@@H](CCCNC(=N)N)C(=O)N[C@@H](CCCNC(N)=O)C(=O)N2) [Example 89] | 0.5 nM | – |
| cyclo(YR[Cit]CRG[dP]RR[2Nal]CYMK[dP]P) (disulfide 4-11; SMILES CSCC[C@@H]1NC(=O)[C@H](Cc2ccc(O)cc2)NC(=O)[C@@H]2CSSC[C@H](NC(=O)[C@H](CCCNC(N)=O)NC(=O)[C@H](CCCNC(=N)N)NC(=O)[C@H](Cc3ccc(O)cc3)NC(=O)[C@@H]3CCCN3C(=O)[C@H]3CCCN3C(=O)[C@H](CCCCN)NC1=O)C(=O)N[C@@H](CCCNC(=N)N)C(=O)NCC(=O)N1CCC[C@@H]1C(=O)N[C@@H](CCCNC(=N)N)C(=O)N[C@@H](CCCNC(=N)N)C(=O)N[C@@H](Cc1ccc3ccccc3c1)C(=O)N2) [Example 83] | 3.7 nM | – |
| cyclo(YR[Cit]CRG[dP]RR[2Nal]CYQS[dP]P) (disulfide 4-11; SMILES N=C(N)NCCC[C@@H]1NC(=O)[C@@H]2CSSC[C@H](NC(=O)[C@H](Cc3ccc4ccccc4c3)NC(=O)[C@H](CCCNC(=N)N)NC(=O)[C@H](CCCNC(=N)N)NC(=O)[C@H]3CCCN3C(=O)CNC1=O)C(=O)N[C@@H](Cc1ccc(O)cc1)C(=O)N[C@@H](CCC(N)=O)C(=O)N[C@@H](CO)C(=O)N1CCC[C@@H]1C(=O)N1CCC[C@H]1C(=O)N[C@@H](Cc1ccc(O)cc1)C(=O)N[C@@H](CCCNC(=N)N)C(=O)N[C@@H](CCCNC(N)=O)C(=O)N2) [Example 87] | 3.5 nM | – |
| cyclo(YR[Cit]CRG[dP]RR[2Nal]CYLK[dP]P) (disulfide 4-11; SMILES CC(C)C[C@@H]1NC(=O)[C@H](Cc2ccc(O)cc2)NC(=O)[C@@H]2CSSC[C@H](NC(=O)[C@H](CCCNC(N)=O)NC(=O)[C@H](CCCNC(=N)N)NC(=O)[C@H](Cc3ccc(O)cc3)NC(=O)[C@@H]3CCCN3C(=O)[C@H]3CCCN3C(=O)[C@H](CCCCN)NC1=O)C(=O)N[C@@H](CCCNC(=N)N)C(=O)NCC(=O)N1CCC[C@@H]1C(=O)N[C@@H](CCCNC(=N)N)C(=O)N[C@@H](CCCNC(=N)N)C(=O)N[C@@H](Cc1ccc3ccccc3c1)C(=O)N2) [Example 82] | 4.8 nM | – |
| cyclo(DR[Cit]CRG[dP]RR[2Nal]CYQK[dP]P) (disulfide 4-11; SMILES N=C(N)NCCC[C@@H]1NC(=O)[C@@H]2CSSC[C@H](NC(=O)[C@H](Cc3ccc4ccccc4c3)NC(=O)[C@H](CCCNC(=N)N)NC(=O)[C@H](CCCNC(=N)N)NC(=O)[C@H]3CCCN3C(=O)CNC1=O)C(=O)N[C@@H](Cc1ccc(O)cc1)C(=O)N[C@@H](CCC(N)=O)C(=O)N[C@@H](CCCCN)C(=O)N1CCC[C@@H]1C(=O)N1CCC[C@H]1C(=O)N[C@@H](CC(=O)O)C(=O)N[C@@H](CCCNC(=N)N)C(=O)N[C@@H](CCCNC(N)=O)C(=O)N2) [Example 88] | 2.5 nM | – |
| cyclo(YR[Cit]CRG[dP]RR[2Nal]CYQA[dP]P) (disulfide 4-11; SMILES C[C@@H]1NC(=O)[C@H](CCC(N)=O)NC(=O)[C@H](Cc2ccc(O)cc2)NC(=O)[C@@H]2CSSC[C@H](NC(=O)[C@H](CCCNC(N)=O)NC(=O)[C@H](CCCNC(=N)N)NC(=O)[C@H](Cc3ccc(O)cc3)NC(=O)[C@@H]3CCCN3C(=O)[C@H]3CCCN3C1=O)C(=O)N[C@@H](CCCNC(=N)N)C(=O)NCC(=O)N1CCC[C@@H]1C(=O)N[C@@H](CCCNC(=N)N)C(=O)N[C@@H](CCCNC(=N)N)C(=O)N[C@@H](Cc1ccc3ccccc3c1)C(=O)N2) [Example 86] | 0.69 nM | – |
| cyclo(YR[Cit]CRG[dP]RR[2Nal]CYQD[dP]P) (disulfide 4-11; SMILES N=C(N)NCCC[C@@H]1NC(=O)[C@@H]2CSSC[C@H](NC(=O)[C@H](Cc3ccc4ccccc4c3)NC(=O)[C@H](CCCNC(=N)N)NC(=O)[C@H](CCCNC(=N)N)NC(=O)[C@H]3CCCN3C(=O)CNC1=O)C(=O)N[C@@H](Cc1ccc(O)cc1)C(=O)N[C@@H](CCC(N)=O)C(=O)N[C@@H](CC(=O)O)C(=O)N1CCC[C@@H]1C(=O)N1CCC[C@H]1C(=O)N[C@@H](Cc1ccc(O)cc1)C(=O)N[C@@H](CCCNC(=N)N)C(=O)N[C@@H](CCCNC(N)=O)C(=O)N2) [Example 85] | 2.7 nM | – |
| cyclo(YR[Cit]CRG[dP]RR[2Nal]CYQN[dP]P) (disulfide 4-11; SMILES N=C(N)NCCC[C@@H]1NC(=O)[C@@H]2CSSC[C@H](NC(=O)[C@H](Cc3ccc4ccccc4c3)NC(=O)[C@H](CCCNC(=N)N)NC(=O)[C@H](CCCNC(=N)N)NC(=O)[C@H]3CCCN3C(=O)CNC1=O)C(=O)N[C@@H](Cc1ccc(O)cc1)C(=O)N[C@@H](CCC(N)=O)C(=O)N[C@@H](CC(N)=O)C(=O)N1CCC[C@@H]1C(=O)N1CCC[C@H]1C(=O)N[C@@H](Cc1ccc(O)cc1)C(=O)N[C@@H](CCCNC(=N)N)C(=O)N[C@@H](CCCNC(N)=O)C(=O)N2) [Example 84] | 3.9 nM | – |
